± gives the uncertainty stated by the source.
Legend:
[1] = amyloid nucleation score (Sup35N fusion, yeast selection) (log enrichment); library NNK1; higher = more nucleation; inactive = no reads after selection
Procedure, shortened: (§1)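 Nucleation score is defined as the DiMSum log enrichment of output over input reads, with centring on the mode score of non-aggregating sequences. A minimum of 100 input reads was required for each sequence. Reads came from Illumina sequencing of plasmid inserts from psi-negative yeast expressing Sup35N fused to peptides of 20 random codons, induced with 100 μM copper sulfate for 24 hours and grown 7 days at 30°C on medium lacking adenine and uracil.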

[2] = amyloid nucleation score (Sup35N fusion, yeast selection) (log enrichment); library NNK2; higher = more nucleation; inactive = no reads after selection
Procedure, shortened: as §1

Substance | amyloid nucleation score [1] | amyloid nucleation score [2]
SNMEYVMNEILVRLALPTSR | -0.671 ± 1.5 | –
VYAMGIHWRFCAKKRIMSG | -0.802 ± 1.7 | –
TKFIE | 1.2 ± 0.37 | –
FYIMTLGYCSWFSVGKRLSP | -0.551 ± 0.43 | –
MERDCVRVDLFRVSRGGWML | – | 5.863 ± 0.052
TRWSANYPRCWPTMRRCLSL | – | 0.858 ± 0.51
ISTYSLCLLSWWH | – | 9.469 ± 0.054
SHTVTDGWCVV | – | 1.52 ± 0.21
SHSGIFSDAAHDVLGGGEEK | – | 0.503 ± 0.8
KCTFMTDFMIIDEVMYWNRC | – | 1.35 ± 0.46
YSKTFTRRSWAHYTCHSVRL | – | 0.12 ± 0.41
NLKDYIAFHNMSTAV | – | 2.22 ± 0.1
LNIYF | – | 3.13 ± 0.11
GYNKLSLSL | – | -0.863 ± 0.64
GEDTFYSISCYVQMLL | – | 1.49 ± 0.08
MLLLGTTSQDHHMTLGKYAG | – | 0.808 ± 0.74
GVCSSNWVYVLLDVDDVISR | – | -0.564 ± 0.39
RFQFSICHYYDLNFS | – | 0.594 ± 0.66
CVSGNMYRLGVINW | – | 0.156 ± 0.29
GNSGYPTV | – | 1.02 ± 0.24
LLSNFGHVRNSSDKLLLFWS | – | 2.9 ± 0.18
RCGVYRVTHSEAERSLSISL | – | 0.698 ± 0.57
CLAASSGVLYNEVQSYNTLV | – | inactive
YCLELIGSLTHALPVKSLLV | – | inactive

Substance | amyloid nucleation score [1] | amyloid nucleation score [2]
SVHRERWMFYIFVCTLVVRG | – | 0.056 ± 0.43
ISPLHNSLKALRFGPPYSTL | – | -0.377 ± 0.4
SFANVSVMSIYRAVNPSWRP | – | 5.56 ± 0.072
IVLYSGCVYKD | – | 0.218 ± 0.33
AVYSGHSYVKMSWVSGGRYW | – | 0.747 ± 0.43
NVVSLILVVLRASCTYLYNG | – | inactive
LENLHTLC | – | inactive
ANPFKSSDATVLVDVRGMGS | – | 3.09 ± 0.068
TKFVWDQNLVSSLINCGQSL | – | -0.841 ± 1.1
VKWISMCSILSYRRG | – | -1.08 ± 0.78
AGVWHSSLFITIQGVLNFGY | – | 6.017 ± 0.02
CEALQSW | – | 0.699 ± 0.34
SDSDLPGFRREGNRIRVWLG | – | 0.312 ± 0.49
ETEGKGRWKD | – | inactive
GLSNFYVFAFYRVFFSLIWA | – | 3.3 ± 0.067
HEPNSYHPRVGLIQELWHCG | – | 0.473 ± 0.45
AFLLLRSMYW | – | 6.933 ± 0.026
DVWIFMTECGDAV | – | 0.743 ± 0.81
TISMEVEYCV | – | -0.1 ± 1
RLPASWLVAPGCRWPCLPRN | – | 1.78 ± 0.22
LLVKTNYVCGALTNGRMNGT | – | 2.12 ± 0.081
RHMLYVGMSHNPRLGPSSLG | – | 0.511 ± 0.38
STYNCFTGADRSLL | – | 0.94 ± 0.67
PIDFVLCSNNSSSWPVHKQN | – | 2.36 ± 0.11

Substance | amyloid nucleation score [1] | amyloid nucleation score [2]
GTLELMHETWVPSLYPVRMQ | – | 0.571 ± 0.4
WDSFLRLDFSMLSVLRREPR | – | 2.98 ± 0.18
PNFRVVFCLRSV | – | 9.978 ± 0.024
RFDSWVAWGFG | – | 1.74 ± 0.15
LLLKPMFRVIILMYARVCMY | – | -1.08 ± 1.1
LTFACSVLL | – | 3.1 ± 0.092
GKNMRYFRQTGCH | – | -0.39 ± 0.21
CRCVR | – | 3.38 ± 0.077
NRKFHIMTFC | – | 0.415 ± 0.41
LMYFMNGL | – | 0.045 ± 0.63
TVELLGILAHCSFCS | – | 8.247 ± 0.054
MSMLPCGSVYFNTRNAYLWL | – | 6.678 ± 0.065
IMELSFLSWVLRSKMDFHAE | – | 5.34 ± 0.066
CARIWLRTWGKIRA | – | 0.092 ± 1.1
HACGIVHRPLLRD | – | -0.191 ± 0.33
VFTSYFLLFICLGYCEFYGD | – | 4.299 ± 0.042
SYSLRFWYIPVADFWLL | – | -0.938 ± 0.36
VVLTHY | – | 0.386 ± 0.34
RSNRYGRDWNGVGTKWLFHD | – | -0.395 ± 0.45
ANKLLESCFSQCLRSALFEW | – | -0.369 ± 0.79
SNSMLASIVNHPSVSVMFFV | – | 6.035 ± 0.047
RFKSIWAVNVIWNDYVADNG | – | 7.835 ± 0.077
GKGNAFVLNFSYGYRCVYHG | – | 6.398 ± 0.04

From the supplement of paper PMC12042874
